For the test, the target named is T1, human TEX10 (43-929), His6-MBP fusion (human, UniProt Q9NXF1 43-929).
T1 sequence (looked up): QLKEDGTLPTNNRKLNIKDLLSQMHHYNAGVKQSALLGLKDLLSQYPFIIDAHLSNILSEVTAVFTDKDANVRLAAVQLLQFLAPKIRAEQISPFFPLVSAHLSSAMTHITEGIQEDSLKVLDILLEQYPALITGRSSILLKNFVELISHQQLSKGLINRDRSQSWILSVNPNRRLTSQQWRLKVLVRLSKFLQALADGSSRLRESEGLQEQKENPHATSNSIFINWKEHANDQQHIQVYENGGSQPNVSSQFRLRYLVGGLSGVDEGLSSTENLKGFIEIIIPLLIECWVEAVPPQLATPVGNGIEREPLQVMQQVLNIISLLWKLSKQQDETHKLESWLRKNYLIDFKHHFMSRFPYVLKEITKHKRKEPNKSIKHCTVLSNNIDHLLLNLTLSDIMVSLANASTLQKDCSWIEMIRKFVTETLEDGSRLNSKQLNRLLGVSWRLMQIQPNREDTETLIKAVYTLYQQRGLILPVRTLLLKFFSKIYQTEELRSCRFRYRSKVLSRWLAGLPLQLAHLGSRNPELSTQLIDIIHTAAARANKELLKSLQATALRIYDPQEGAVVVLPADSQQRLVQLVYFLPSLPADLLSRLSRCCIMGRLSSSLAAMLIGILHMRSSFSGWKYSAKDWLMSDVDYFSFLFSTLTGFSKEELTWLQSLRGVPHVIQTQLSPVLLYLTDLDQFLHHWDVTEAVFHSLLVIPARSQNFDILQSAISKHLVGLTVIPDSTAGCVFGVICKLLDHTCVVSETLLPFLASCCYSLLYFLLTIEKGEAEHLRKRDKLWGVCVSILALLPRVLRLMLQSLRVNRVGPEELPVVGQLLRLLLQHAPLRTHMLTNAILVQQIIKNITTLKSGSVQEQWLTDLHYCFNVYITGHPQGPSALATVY
Kind of test: cryo-EM structure.

B1: human PELP1 (residues 1-642, Rix1 domain) (domain or fragment)
chain: not shown
For the molecule B1, the binding result is “binds”.

For the origin of these results see publication PMC11976907 (Nature Communications, 2025).
